Data: PMC7274078, “Brain Endothelial Cells Regulate Glucagon-Like Peptide 1 Entry Into the Brain via a Receptor-Mediated Process” (Frontiers in Physiology, 2020)

What was measured:
[1] = Circulating GLP-1-FAM / exendin-4-FAM uptake by the brain; assay type: in vivo; conditions: rat, systemic infusion 30 pmol/kg/min for 10 min; cerebellum, cortex, hippocampus, hypothalamus, brain stem; FAM fluorescence in lysates corrected for vascular space with Dextran-TRITC; n = 7 (GLP-1-FAM), n = 6 (exendin-4-FAM)
Method: Rats received a systemic infusion of either saline or exendin-(9-39) (GLP-1 receptor antagonist, 30 nmol/kg/min, Abcam, Cambridge, United Kingdom) via the jugular vein catheter for 20 min (Figure 1A). In the last 10 min, rats also received 30 pmol/kg/min of either GLP-1-FAM (AnaSpec, Fremont, CA, United States) or exendin-4-FAM (AnaSpec, Fremont, CA, United States) together with Dextran-TRITC (Sigma-Aldrich, St. Louis, MO, United States) (70 kD, vascular space marker, 30 pmol/kg/min). […] After collecting plasma samples, rats were sacrificed via anesthetic overdose and various brain regions (cerebellum, cortex, hippocampus, hypothalamus, and brain stem) collected, homogenized and lysed in lysis buffer. Fluorescence from TRITC and FAM were measured in both plasma and brain lysates. Protein concentrations were determined in the brain lysates. Brain uptake of GLP-1-FAM and exendin-4-FAM were calculated using the following formula:
Tissue fluorescence [FAM]/Tissue weight (μg)−TissueFluorescence [TRITC]/Weight(μg)/PlasmaFluorescence [TRITC]/200(μL)×Plasma Fluorescence [FAM]/200μL
FIGURE 1 GLP-1 and GLP-1 analog exendin-4 enter various brain regions via GLP-1 receptor-mediated process. (A) Protocol. […]

[2] = test system: RBMEC and astrocyte barrier; assay: Trans-endothelial GLP-1 transport (Transwell artificial BBB); assay type: in vitro ADME, rat
Method: The trans-endothelial GLP-1 transport was examined using a Transwell system that mimics the BBB in that RBMECs were co-cultured with astrocytes as illustrated in Figure 7A and previously described ([Gaillard et al., 2001]). Briefly, astrocytes (Thermo Fisher Scientific, Waltham, MA, United States) were seeded on the bottom and RBMECs were then seeded onto the top of the Transwell insert (6.5 mm diameter, 1 μm pore size, polyester membrane; Corning, Corning, NY, United States). Trans-endothelial electrical resistance was monitored using a volt-ohmmeter (EVOM; WPI, Sarasota, FL, United States) and EndOhm chamber (EndOhm; WPI). When the trans-endothelial electrical resistance reached its peak, the insert with double cell layers was washed twice at 37°C with PBS buffer. […] The amount of GLP-1-FAM or inulin-FITC transported to the lower chamber was determined by measuring FAM and FITC fluorescence in the lower chamber at 5, 10, and 30 min. Inulin-FITC transport was used to correct for paracellular transport and the amount of trans-endothelial transport of GLP-1-FAM was calculated using the formula:
Transcellular transport (%)=Fluorescence [FAM]/Reference [FAM]×100−Fluorescence [FITC]/Reference [FITC]×100
Reference refers to fluorescence in the lower chamber at the specified time point when the Transwell inserts had no cells seeded. To determine if this trans-endothelial transport is dose-dependent, 10, 100, and 1,000 pM GLP-1-FAM or inulin-FITC (with DDP-4 inhibitor) was loaded into the upper chamber, the amount of GLP-1-FAM or inulin-FITC in the lower chamber was determined at 10 min, and trans-endothelial transport of GLP-1 was calculated.
FIGURE 7 Trans-endothelial transport of GLP-1 is a GLP-1 receptor-mediated process. […] GLP-1-FAM or inulin-FITC transport to the lower chamber was determined by measuring FAM and FITC fluorescence in the lower chamber. […]

[3] = test system: Rat brain microvascular endothelial cells (RBMECs); assay: Endothelial cell uptake of GLP-1-FAM; assay type: cell-based; conditions: confocal fluorescence
Method: Rat brain microvascular endothelial cells (RBMECs; Cell Applications, San Diego, CA, United States) were cultured on a cover slip in rat brain endothelial cell growth medium. After reaching confluency, cells were pre-treated with vehicle (PSS buffer), exendin 9-39 (10 nM) or H89 (Sigma-Aldrich, St. Louis, MO, United States) (10 μM) for 30 min or forskolin (Sigma-Aldrich, St. Louis, MO, United States) (10 μM) for 5 min. Cells were then incubated with GLP-1-FAM at either 10, 100 or 1,000 pM for 3 min at 37°C. DAPI was used to stain the nucleus. After fixation and washing three times with cold TBST (5 min each time), cell images were captured using confocal microscope and fluorescence intensity measured using ImageJ software^1. FAM signal from surface binding of FAM was examined by incubating cells with GLP-1-FAM at 4 or 37°C for 3 min, or free FAM (10, 100, and 1,000 pM) at 37°C for 3 min.
FIGURE 5 GLP-1 uptake by RBMECs is GLP-1 receptor and PKA dependent. RBMECs were pretreated with vehicle (PSS buffer, A,E,I), Exendin 9-39 (10 nM, B,F,J) or H89 (10 μM, C,G,K) for 30 min. Cells were then incubated with GLP-1-FAM at 10, 100 pM or 1 nM for 3 min. DAPI was used to stain the nucleus. Images were captured using confocal microscope. Fluorescence density was analyzed using ImageJ. (D,H,L) Quantitative analysis (n = 3, *p < 0.01, vs. vehicle, Student’s t test). GLP-1R – GLP-1 receptor.
FIGURE 6 cAMP agonist increases GLP-1 uptake by RBMECs. (A) RBMECs were incubated with GLP-1-FAM at 10 pM for 3 min with or without 10 μM forskolin. DAPI was used to stain the nucleus. Images was captured using confocal microscope. Fluorescence density was analyzed using ImageJ. (B) quantitative analysis of the images (n = 6, *p < 0.05, vs. vehicle, Student’s t test).

[4] = in vivo; cited from earlier work
Excerpt: Peptides cross the BBB via transcellular vesicular pathways that may be either constitutive or regulated. […] This is similar to leptin ([Banks et al., 1996]) and insulin ([Gray et al., 2014]; [Meijer et al., 2016]), two appetite regulating hormones secreted peripherally that enter into the brain. || The central actions of GLP-1 and its analogs have been well recognized. GLP-1 analogs have been repeatedly shown to cross the BBB, stimulate brain GLP-1 receptors, and modulate mitochondrial function, protein aggregation, neuroinflammation, synaptic plasticity, learning and memory in experimental models of Parkinson's and Alzheimer's disease ([Athauda and Foltynie, 2016]). Our observation that peripherally administrated GLP-1 and exendin-4 rapidly enter various brain regions is consistent with prior findings that peripherally injected GLP-1 analogs can easily enter the brain ([[…] and Akers ...

DPP4 = conditions: no reference given; cited from earlier work
Excerpt: GLP-1 receptors are expressed in multiple brain areas in rodents, primates, and humans and they are involved in learning, neuroprotection and regulation of appetite and satiety ([Wei and Mojsov, 1995]; [During et al., 2003]; [Richards et al., 2014]). Global knockout of the GLP-1 receptor in mice impairs synaptic plasticity and memory formation ([Abbas et al., 2009]). […] Indeed, pre-treatment of animals w ...

Substance | FAM-labeled peptide detected in brain regions (brain uptake) [1] | concentration dependence of trans-endothelial transport ([2]; Transwell, 10, 100 and 1000 pM, 10 min, with DPP4 inhibitor, n = 6, p = 0.37) | transport across the RBMEC and astrocyte barrier, time course ([2]; Transwell, RBMECs co-cultured with astrocytes, 100 pM in upper chamber with DPP4 inhibitor, lower chamber fluorescence at 5, 10 and 30 min, corrected for paracellular transport with inulin-FITC, n = 7) | RBMEC uptake ([3]; 10, 100 and 1,000 pM, 3 min at 37°C, ImageJ) | RBMEC uptake at 4°C ([3]; 3 min at 4°C) | time to detection in the brain after intravenous injection [4] [min] | half-life (DPP4) [h] | stability to DPP4 (DPP4)
GLP-1-FAM: FAM-labeled GLP-1 (AnaSpec) | detected in various brain regions | does not appear to be concentration dependent | crossed the barrier in a time-dependent fashion | actively took up | did not take up |  |  | 
exendin-4 |  |  |  |  |  | ≤ 5 | 1.5 | DPP4 resistant
